B1: Arl15-AL-Myc [human] / GST-Smad4 [not stated] (parent complex)
chain 1: MSDLRITEAFLYMDYLCFRALCCKGPPPARPEYDLVCIGLTGSGKTSLLSKLCSESPDNVVSTTGFSIKAVPFQNAILNVKELGGLDNIRKYWSRYYQGSQGVIFVLDSASSEDDLEAARNELHSALQHPQLCTLPFLILANHQDKPAARSVQEIKKYFELEPLARGKRWILQPCSLDDMDALKDSFSQLINLLEEKDHEAVRM
chain 2: MDNMSITNTPTSNDACLSIVHSLMCHRQGGESETFAKRAIESLVKKLKEKKDELDSLITAITTNGAHPSKCVTIQRTLDGRLQVAGRKGFPHVIYARLWRWPDLHKNELKHVKYCQYAFDLKCDSVCVNPYHYERVVSPGIDLSGLTLQSNAPSSMMVKDEYVHDFEGQPSLSTEGHSIQTIQHPPSNRASTETYSTPALLAPSESNATSTANFPNIPVASTSQPASILGGSHSEGLLQIASGPQPGQQQNGFTGQPATYHHNSTTTWTGSRTAPYTPNLPHHQNGHLQHHPPMPPHPGHYWPVHNELAFQPPISNHPAPEYWCSIAYFEMDVQVGETFKVPSSCPIVTVDGYVDPSGGDRFCLGQLSNVHRTEAIERARLHIGKGVQLECKGEGDVWVRCLSDHAVFVQSYYLDREAGRAPGDAVHKIYPSAYIKVFDLRQCHRQMQQQAATAQAAAAAQAAAVAGNIPGPGSVGGIAPAISLSAAAGIGVDDLRRLCILRMSFVKGWGPDYPRQSIKETPCWIEIHLHRALQLLDEVLHTMPIADPQPLD
B2: GFP-Smad4-WT [not stated] / GST-Arl15-AL [human] (parent complex)
chain 1: B1 chain 2
chain 2: B1 chain 1

Variants of: B1
Assay: GST pull-down, immunoblot band quantification; HeLa cell lysates; bead-immobilized GST-Smad4; parent: 100

Variant | percent of parent
chain 1 D58N | 93
chain 1 R150H | 87

Variants of: B2
Assay: GST pull-down, immunoblot band quantification; HEK293T cell lysates; bead-immobilized GST-Arl15-AL; n=3; parent: 1; read off a plot

Variant | ratio to parent
chain 1 L495P | ~1.3
chain 1 E538K | ~0.29
chain 1 H541Y | ~0.37
chain 1 R496H | ~1.1
chain 1 M447K | ~1.1
chain 1 R497H | ~1
chain 1 A532D | ~0.2
chain 1 D493H | ~0.9
